Measured values taken from patent US5853984, “Use of nucleic acid ligands in flow cytometry” (NeXstar Pharmaceuticals, Inc.).

Columns and labels:
[1] = target: T1, Human neutrophil elastase (HNE) (Homo sapiens) (UniProt P08246); assay: flow; conditions: HNE on polystyrene beads, 2 mM MgCl2, 1% BSA, room temperature
T1 sequence: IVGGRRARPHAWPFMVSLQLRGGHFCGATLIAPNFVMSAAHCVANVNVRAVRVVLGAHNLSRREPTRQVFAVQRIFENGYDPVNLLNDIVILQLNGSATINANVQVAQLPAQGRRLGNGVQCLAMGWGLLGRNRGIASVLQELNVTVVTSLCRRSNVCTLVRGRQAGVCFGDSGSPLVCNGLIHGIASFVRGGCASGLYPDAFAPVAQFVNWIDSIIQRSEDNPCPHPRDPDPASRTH

[2] = target: T1, Human neutrophil elastase (HNE) (Homo sapiens); assay: filter; conditions: 150 mM NaCl, 100 mM Tris-HCl pH 7.0, 2 mM MgCl2, 6 mM KCl, 0.02% HSA, 37 C
[3] = target: T2, Human neutrophil elastase (HNE) (Homo sapiens, UniProt P08246 P08246:30-267); assay: flow; HNE on polystyrene beads, 2 mM MgCl2, 1% BSA, room temperature; conditions: tags: Athens Research and Technology, salt-free lyophilized solid; label: fluorescein; G-quartet with duplex ends
Experimental: Beads (0.5% solids) in acetate buffer were coated with HNE (0.5 μg/cm² of bead surface area) for 30 min and then washed and suspended (approx. 5×10⁵ beads/μL) in acetate buffer containing 2% BSA. HNE coated beads were stored at 4° C. until use.
Staining of HNE coated beads was achieved by incubating beads (approx. 3×10⁵) with varying concentrations of fluoresceinated oligonucleotides in 50 μL of binding buffer consisting of 100 mM Tris-HCl (pH 7.0), 0.15M NaCl, 6 mM KCl, 2 mM MgCl₂ and 1% BSA for 30 min at room temperature. The beads were then washed with 2 mL of the same buffer and suspended in 0.5 mL for analysis. Staining with mouse anti-HNE was accomplished in the same method except that bound antibody was detected by a second step fluorescein isothiocyanate (FITC) labeled antibody (X56-FITC). […] Analysis was performed on a FACScan™ flowcytometer (Becton Dickinson). The sensitivity of the flowcytometer was adjusted so that the autofluorescence of the unstained beads was located in the middle of the first decade.

[4] = target: T2, Human neutrophil elastase (HNE); assay: filter; 150 mM NaCl, 100 mM Tris-HCl pH 7.0, 2 mM MgCl2, 6 mM KCl, 0.02% HSA, 37 C; conditions: tags: Athens Research and Technology, salt-free lyophilized solid; label: fluorescein; G-quartet with duplex ends
[5] = target: T2, Human neutrophil elastase (HNE); assay: flow; second-step staining with streptavidin-phycoerythrin; affinity lower than direct fluorescence measurement; conditions: tags: Athens Research and Technology, salt-free lyophilized solid; label: biotin (streptavidin-phycoerythrin); G-quartet with duplex ends
[6] = two internal fluoresceins in extension
[7] = tail-to-tail dimer via symmetric 3'-3' linker (X) with ethylene glycol linkers and two fluoresceins (LFLXLFL)

Molecule “GNCACAGTCGACGATACTGCGTGGGTTGGGGCGGGTAGGGCCAGCAGTCTCGTNGACTGRGTC [DNA-EXT]” has a Kd [1, 6] of 48 nM and a Kd [2, 6] of 12 nM.

With “TAGCGATACTGCGTGGGTTGGGGCGGGTAGGGCCAGCAGTCTCGTNNNNNNNTGCTCTGACGACCGGGATGGGCGGGGTTGGGTGCGTCATAGCGAT [DNA-DIMER-TT]” the Kd [1, 7] was 20 nM and the Kd [2, 7] was 3 nM.

B1: DNA-LNK-5F (ssDNA)
DNA: TAGCGATACTGCGTGGGTTGGGGCGGGTAGGGCCAGCAGTCTCGT
modifications: 5' fluorescein followed by two hexaethylene glycol spacers [5' fluorescein + two hexaethylene glycol spacers (n1-n3, left out) before T1]
For B1, the Kd [3] was 110 nM and the Kd [4] was 12 nM.

B2: biotinylated DNA ligand (ssDNA)
DNA: TAGCGATACTGCGTGGGTTGGGGCGGGTAGGGCCAGCAGTCTCGTT
modifications: biotin attached to 3' end through a linker
B2: binds [5].
